The source of these data is patent US20130089868A1.

A value given as a limit tells only on which side of the number the result lay.

This test concerns the target MLS-NR2B (mitochondrial targeting signal sequence, myc-epitope, GST and NR2B residues 1271-1311) [GST: P08515]. Put plainly: percentage of green fluorescent HEK-293 cells with GFP clustering after Ca^2+ influx (FIG. 5).

Take “GFP-T286D-α-CaMKII (from UniProt P11275 1-478) (enzyme)”: the fold increase of the cell count against wild-type GFP-α-CaMKII was greater than 2 fold.
